Experimental data published in patent US20050282740.

Target: GST-WW-domain of Pin1 (UniProt Q13526)
Sequence (Q13526 1-54): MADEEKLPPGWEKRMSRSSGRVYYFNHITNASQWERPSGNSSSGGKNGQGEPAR

Cdc25C synthesized in vitro and phosphorylated by Xenopus mitotic extracts
dephosphorylation of precipitated Cdc25C by CIP: CIP failed to dephosphorylate Cdc25C
